From the supplement of paper PMC10567573

B1: DFFB (parent)
chain: TLVEAIKEQDGREVDWEYFYGLLF
B2: C10orf62 (parent)
chain: RALEEVEMKLQKNFLTQRENTIAG

Variants of: B1
Assay: protein stability index of a GFP-peptide fusion (GPS, HEK-293T) (PSI 1-6); higher = more stable
Conditions: c terminus: a fixed tail appended
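Also: lentivirally expressed fusions sorted by FACS into six bins by GFP to DsRed ratio, PSI derived from sequencing read proportions per bin multiplied by bin number.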

Row | Variant | protein stability index
1 | TFVEAIKEQDGREVDWEYFYGLLF | 1.95
2 | TMVEAIKEQDGREVDWEYFYGLLF | 2.15
3 | TAVEAIKEQDGREVDWEYFYGLLF | 3.03
4 | TIVEAIKEQDGREVDWEYFYGLLF | 2.35
5 | TGVEAIKEQDGREVDWEYFYGLLF | 2.5
6 | THVEAIKEQDGREVDWEYFYGLLF | 1.92
7 | TCVEAIKEQDGREVDWEYFYGLLF | 2.16
8 | TLVEAIKEQRGREVDWEYFYGLLF | 1.41
9 | TLVEAIKEQHGREVDWEYFYGLLF | 1.99
10 | TLVEAIKEQLGREVDWEYFYGLLF | 1.91
11 | TLVEAIKEQSGREVDWEYFYGLLF | 2.37
12 | TLVEAIKEQKGREVDWEYFYGLLF | 2.12
13 | TLVEAIKEQQGREVDWEYFYGLLF | 1.71
14 | TLVEAIKEQNGREVDWEYFYGLLF | 1.86
15 | TLVEAIKEQVGREVDWEYFYGLLF | 1.73
16 | TLVEAIKEQCGREVDWEYFYGLLF | 1.99
17 | TLVEAIKEQTGREVDWEYFYGLLF | 1.59
18 | TLVEAIKEQMGREVDWEYFYGLLF | 1.35
19 | TLVEAIKEQAGREVDWEYFYGLLF | 2.01
20 | TLVEAIKEQPGREVDWEYFYGLLF | 2.32
21 | TLVEAIKEQGGREVDWEYFYGLLF | 2.66
22 | TLVEAIKEQFGREVDWEYFYGLLF | 1.91
23 | TLVEAIFEQDGREVDWEYFYGLLF | 2.99
24 | TLVEAIEEQDGREVDWEYFYGLLF | 2.34
25 | TLVEAITEQDGREVDWEYFYGLLF | 2.19
26 | TLVEAISEQDGREVDWEYFYGLLF | 1.31

Row | Variant | protein stability index
27 | TLVEAIPEQDGREVDWEYFYGLLF | 2.3
28 | TLVEAINEQDGREVDWEYFYGLLF | 1.51
29 | TLVEAIIEQDGREVDWEYFYGLLF | 2.28
30 | TLVEAIGEQDGREVDWEYFYGLLF | 1.79
31 | TLVEAIWEQDGREVDWEYFYGLLF | 2.15
32 | TLVEAIAEQDGREVDWEYFYGLLF | 2.31
33 | TLVEAIREQDGREVDWEYFYGLLF | 1.03
34 | TLVEAIYEQDGREVDWEYFYGLLF | 3.52
35 | TLVEAIQEQDGREVDWEYFYGLLF | 2.16
36 | TLVEAIDEQDGREVDWEYFYGLLF | 1.58
37 | TLVEAIMEQDGREVDWEYFYGLLF | 1.72
38 | TLVEAIHEQDGREVDWEYFYGLLF | 1.9
39 | TLVEAIVEQDGREVDWEYFYGLLF | 1.64
40 | TLVEAICEQDGREVDWEYFYGLLF | 1.98
41 | TLSEAIKEQDGREVDWEYFYGLLF | 3.22
42 | TLPEAIKEQDGREVDWEYFYGLLF | 2.16
43 | TLGEAIKEQDGREVDWEYFYGLLF | 1.58
44 | TLREAIKEQDGREVDWEYFYGLLF | 2.23
45 | TLFEAIKEQDGREVDWEYFYGLLF | 2
46 | TLYEAIKEQDGREVDWEYFYGLLF | 1.39
47 | TLKEAIKEQDGREVDWEYFYGLLF | 2.88
48 | TLCEAIKEQDGREVDWEYFYGLLF | 1.94
49 | TLLEAIKEQDGREVDWEYFYGLLF | 2.22
50 | TLWEAIKEQDGREVDWEYFYGLLF | 1.76
51 | TLTEAIKEQDGREVDWEYFYGLLF | 2.53
52 | TLNEAIKEQDGREVDWEYFYGLLF | 2.21

Row | Variant | protein stability index
53 | TLDEAIKEQDGREVDWEYFYGLLF | 2.65
54 | TLEEAIKEQDGREVDWEYFYGLLF | 2.86
55 | TLHEAIKEQDGREVDWEYFYGLLF | 2.16
56 | TLAEAIKEQDGREVDWEYFYGLLF | 1.95
57 | TLQEAIKEQDGREVDWEYFYGLLF | 1.88
58 | TLMEAIKEQDGREVDWEYFYGLLF | 2.28
59 | TLIEAIKEQDGREVDWEYFYGLLF | 3.34
60 | TLVEAIKEMDGREVDWEYFYGLLF | 1.74
61 | TLVEAIKEDDGREVDWEYFYGLLF | 1.97
62 | TLVEAIKEVDGREVDWEYFYGLLF | 1.24
63 | TLVEAIKETDGREVDWEYFYGLLF | 2
64 | TLVEAIKELDGREVDWEYFYGLLF | 3.05
65 | TLVEAIKEPDGREVDWEYFYGLLF | 3
66 | TLVEAIKEGDGREVDWEYFYGLLF | 1.26
67 | TLVEAIKENDGREVDWEYFYGLLF | 1.57
68 | TLVEAIKEKDGREVDWEYFYGLLF | 1.55
69 | TLVEAIKEWDGREVDWEYFYGLLF | 2.59
70 | TLVEAIKEHDGREVDWEYFYGLLF | 2.33
71 | TLVEAIKEFDGREVDWEYFYGLLF | 2.73
72 | TLVEAIKESDGREVDWEYFYGLLF | 1.66
73 | TLVEAIKEADGREVDWEYFYGLLF | 1.37
74 | TLVEAIKEYDGREVDWEYFYGLLF | 1.08
75 | TLVEAIKEIDGREVDWEYFYGLLF | 1.87
76 | TLVEAIKERDGREVDWEYFYGLLF | 2.27
77 | TLVEAIKEEDGREVDWEYFYGLLF | 2.26

Variants of: B2
Assay: as above
Conditions: c terminus: a fixed tail appended

Row | Variant | protein stability index
78 | RALEEVEMKLQKNFLTQRENTIAM | 3.08
79 | RALEEVEMKLQKNFLTQRENTIAR | 3.5
80 | RALEEVEMKLQKNFLTQRENTIAQ | 3.6
81 | RALEEVEMKLQKNFLTQRENTIAE | 4.04
82 | RALEEVEMKLQKNFLTQRENTIAW | 3.48
83 | RALEEVEMKLQKNFLTQRENTIAK | 4.19
84 | RALEEVEMKLQKNFLTQRENTIAI | 2.31
85 | RALEEVEMKLQKNFLTQRENTIAF | 2.37
86 | RALEEVEMKLQKNFLTQRENTIAH | 3.07
87 | RALEEVEMKLQKNFLTQRENTIAN | 3.45
88 | RALEEVEMKLQKNFLTQRENTIAV | 2.85
89 | RALEEVEMKLQKNFLTQRENTIAD | 4.37
90 | RALEEVEMKLQKNFLTQRENTIAP | 3.71
91 | RALEEVEMKLQKNFLTQRENTIAL | 2.65
92 | RALEEVEMKLQKNFLTQRENTIAY | 2.18
93 | RALEEVEMKLQKNFLTQRENTIAS | 3.43
94 | RALEEVEMKLQKNFLTQRENTIAT | 3.76
